# Results taken from publication PMC6987225.
# Biological target: T1, EngHD (Engrailed homeodomain, DNA-binding domain) (Drosophila melanogaster) (UniProt P02836)
# T1 sequence: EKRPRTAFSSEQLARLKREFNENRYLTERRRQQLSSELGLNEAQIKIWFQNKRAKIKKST
# Assay: FCS
# Settings: ~1 nM Alexa 488-EngHD with unlabeled dsDNA titrated, ionic strength 50 mM (NaCl) unless stated, buffer, pH and temperature not in the material
Substance,"Kd (upper estimate, text: sub-nM)",Kd
full beta3-tubulin gene 7219 bp,< 0.7 nM,–
CCATGGTTCTTAACCAAATTGAATTCTCGCCACCGATCGTGTTCGCCCGAAATAAATCTGGCCGAAAAGCCATCAATCTACAATCTAACTGTGCCTCGGTTTATACCTCCAACTGCCGTTCACCGAAAAGGCCGACAGTTTTCCGACAAAGACAAATTCTTAACCAAATTGAATTCTCGCCACCGATCGTGTTCGCCCGAAATAAATCTGGCCGAAAAGCCATCAATCTACAATCTAACTGTGCCTCGGTTTATACCTCCAACTGCCGTTCACCGAAAAGGCCGACAGTTTTCCGACTAATTGTTCTTAACCAAATTGAATTCTCGCCACCGATCGTGTTCGCCCGAAATAAATCTGGCCGAAAAGCCATCAATCTACAATCTAACTGTGCCTCGGTTTATACCTCCAACTGCCGTTCACCGAAAAGGCCGACAGTTTTCCGACTTCTTAACCAAATTGAATTCTCGCCACCGATCGTGTTCGCCCGAAATAAATCTGGCCGAAAAGCCATCAATCTACAATCTAACTGTGCCTCGGTTTATACCTCCAACTGCCGTTCACCGAAAAGGCCGACAGTTTTCCGACAAAGACAAAAAGCTT (double strand) [600 bp TAATTG],–,2.2 nM
